Assay results taken from patent US20070184522A1, “Cell death modulation via antagonists of Fasl and Fas activation” (University of Pittsburgh of the Commonwealth System of …, priority 2004, published 2007).
Entries after “also recorded” stand apart in the source; their conditions may differ.

T1: Fas-Fc / FasL binding (Mus musculus, UniProt P25446)
T1 construct: purchased R&D
T1 sequence (P25446 22-169 limits assumed): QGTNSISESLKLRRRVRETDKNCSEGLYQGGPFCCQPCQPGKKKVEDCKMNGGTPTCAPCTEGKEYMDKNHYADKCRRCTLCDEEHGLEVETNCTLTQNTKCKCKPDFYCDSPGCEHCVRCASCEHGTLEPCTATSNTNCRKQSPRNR

T2: Fas trimerization in Jurkat cells (Homo sapiens, UniProt P25445)
T2 construct: endogenous in cells; host or cells: Jurkat
T2 sequence (P25445 26-335): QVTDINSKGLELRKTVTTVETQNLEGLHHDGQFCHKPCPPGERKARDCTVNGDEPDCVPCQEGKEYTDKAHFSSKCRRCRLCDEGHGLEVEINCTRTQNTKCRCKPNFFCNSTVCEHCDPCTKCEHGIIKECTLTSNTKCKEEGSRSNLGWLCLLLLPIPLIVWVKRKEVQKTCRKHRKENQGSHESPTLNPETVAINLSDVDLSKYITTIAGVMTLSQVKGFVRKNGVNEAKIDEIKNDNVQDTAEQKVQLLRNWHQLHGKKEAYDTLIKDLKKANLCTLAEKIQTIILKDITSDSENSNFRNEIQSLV

B1: alpha subunit of Met (AlphaMet), amino acid residues 1 to 306, His-tagged (receptor, mouse)
chain: MKAPTVLAPGILVLLLSLVQRSHGECKEALVKSEMNVNMKYQLPNFTAETPIQNVVLHGHHIYLGATNYIYVLNDKDLQKVSEFKTGPVLEHPDCLPCRDCSSKANSSGGVWKDNINMALLVDTYYDDQLISCGSVNRGTCQRHVLPPDNSADIQSEVHCMFSPEEESGQCPDCVVSALGAKVLLSEKDRFINFFVGNTINSSYPPGYSLHSISVRRLKETQDGFKFLTDQSYIDVLPEFLDSYPIKYIHAFESNHFIYFLTVQKETLDAQTFHTRIIRFCSVDSGLHSYMEMPLECILTEKRRKRHHHHHH

Columns and labels:
[1] = tested on: Fas capping in Hepa 1-6 cells; experiment: Fas capping of fluorescent protein tagged Fas in Hepa 1-6 cells; type: cell-based; conditions: for FasL-induced Fas capping: Hepa 1-6, FasL 1 μg/ml, AlphaMet 5 μg/ml or YLGA 12 mer 1 μg/ml, 30 minutes; for Jo2-induced Fas capping/clustering: Hepa 1-6, Jo2 100 ng/ml
Protocol: (§1) FIG. 3a presents data collected from Jurkat cells (1×10^6) treated with 2 μg/ml of Fas Ligand with or without AlphaMet for 30 minutes on ice. Cells were washed with PBS twice and then incubated with 2 mM of DTSSP in PBS for 30 minutes. The crosslinking process was stopped by 20 mM of Tris (pH 7.5) for another 30 minutes. Cells were spun down and washed with PBS twice and lyzed in RIPA buffer. Cell lysates were subjected to SDS-PAGE under non-reducing or reducing conditions (FIG. 3b) and Western blot analysis using the mouse monoclonal antibody against human Fas. FIG. 3c depicts the quantification of the data in FIG. 3a by densitometry. The data are the mean and SE from three different independent crosslinking and Western blot experiments. […] Frame A: Acceptor CFP-Fas image; Frame B: Acceptor pre-bleach CFP-Fas image; Frame C: Acceptor post-bleach image. Frame D: Donor YFP-Fas image; Frame E: Donor pre-bleach image; Frame F: […]. The CFP-Fas strength in the selected region obtained a gain of 19.3% efficiency in the presence of FasL for 15 minutes. No FRET was observed without FasL. […] FIG. 3e depicts the results of experiments in which CFP-tagged Fas or CFP control vector were transiently expressed in Hepa 1-6 Cells (3×10^5). Cells were treated with 1 μg/ml of Fas ligand or 100 ng/ml of Jo2 with or without 5 μg/ml of AlphaMet or 1 μg/ml of YLGA 12 mer for 30 minutes on ice. Cells were fixed and analyzed by fluorescence microscopy. Frame A: AlphaMet treatment only, no FasL; Frame B: Fas ligand treatment only; Frame C: Fas ligand and AlphaMet treatment; Frame D: Fas ligand and 12 mer YLGA; Frame E: Jo2 treatment only and Frame F: Jo2 and AlphaMet treatment.
Fluorescence protein tagged Fas molecules and Hepa 1-6 cells were used for these experiments. These cells were transiently co-transfected with CFP and YFP chimeric Fas expression vectors using the lipofectamine 2000 method (Invitrogen). After 24 hours of transfection, about 50% of the cells were fluorescing. The cells were treated by Fas-ligand in the presence or absence of AlphaMet for 30 minutes. Treated cells were then fixed with cold methanol and subjected to FRET analysis. Cells were considered positive if FRET efficiency was over 10%. FRET phenomenon was observed only in cells that were treated with Fas-ligand. […] In these experiments the percent of Fas capping was also determined.

Fas-Fc / FasL binding = biological target: T1, Fas-Fc / FasL binding; experiment: Competition pull down with Fas-Fc, recombinant AlphaMet and recombinant FasL
Protocol: This antibody also recognizes Fas-Fc which is also tagged at the C-terminus by His. In FIG. 2b, a fixed amount of purified recombinant Fas-ligand was added to Fas-Fc in the absence or presence of increasing amounts of AlphaMet as indicated. Samples were subjected to pull down using proteinA agarose followed by Western blot using a polyclonal rabbit anti-FasL antibody. […] Fas ligand (1 μg/ml) was coated in the wells of a microtiter plate (triplicate wells) then 1 μg/ml of Fas-Fc was added in the absence or presence of an increasing amount of the indicated polypeptide. A 13 mer YLGA polypeptide derived from FasL also was synthesized and used. The control peptide was a scrambled 13 mer. Anti human […] conjugates were used to detect the bound Fas-Fc. […] One-way ANOVA was carried out for determination of statistical significance. […] Cells (3×10^5) were plated in 24-well plates having Poly-L-Lysine pre-treated cover glass. 2 μg/ml of Fas ligand was added and the cells were incubated for 30 min on ice. Cells were then washed by PBS twice, and were subjected to immunostaining using anti-Fas ligand antibody and fluorescent microscopy. In Frame A, Fas ligand was not added, in B, only Fas ligand was added, in C-F, Fas ligand was added with different polypeptides as follows: AlphaMet, 12 mer YLGA, control peptide, and YLGA mutated AlphaMet, respectively. […]

[2] = biological target: T2, Fas trimerization in Jurkat cells; experiment: Chemical crosslinking (DTSSP) and Western blot of Fas trimerization in Jurkat cells; type: cell-based; conditions: Fas Ligand 2 μg/ml, DTSSP
Protocol: as §1, with “Cells were treated with 1 μg/ml of Fas ligand or 100 ng/ml of Jo2 with or without 5 μg/ml of AlphaMet or 1 μg/ml of YLGA 12 mer for 30 minutes on ice.” left out, “Frame A: AlphaMet treatment only, no FasL; Frame B: Fas ligand treatment only; Frame C: Fas ligand and AlphaMet treatment; Frame D: Fas ligand and 12 mer YLGA; Frame E: Jo2 treatment only and Frame F: Jo2 and AlphaMet treatment.” left out

FasL binding to Fas in pull down (Fas-Fc / FasL binding; fixed FasL, increasing amounts of AlphaMet)	Molecule	FasL-induced Fas capping [1]	Jo2-induced Fas capping/clustering [1]	binding of AlphaMet to Fas in presence of FasL (Fas-Fc / FasL binding; increasing amounts of FasL)	Fas trimerization [2]
	HHIYLGATNYIY [12 mer]	inhibited to the background level	reduced Jo2-induced Fas capping		
blocked the FasL binding to Fas	B1	inhibited to the background level	also inhibited; also recorded: reduced Jo2-induced Fas capping	completely abrogated by increasing amounts of FasL	reduced the Fas trimerization to the background level
